# In paper PMC9482650, “Quantitative fragmentomics allow affinity mapping of interactomes” (Nature Communications, 2022):
# Where a chain is given by its changes, count along the chain named.
# T1: PDZRN3_1, Q9UPQ7
# T1 sequence (Q9UPQ7 244-349, limits assumed, looked up): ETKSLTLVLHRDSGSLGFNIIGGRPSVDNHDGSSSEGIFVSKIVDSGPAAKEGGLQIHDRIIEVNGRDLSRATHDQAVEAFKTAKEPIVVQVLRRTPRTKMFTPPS
# T2: DLG3_2, Q92796
# T2 sequence (Q92796 221-321, limits assumed, looked up): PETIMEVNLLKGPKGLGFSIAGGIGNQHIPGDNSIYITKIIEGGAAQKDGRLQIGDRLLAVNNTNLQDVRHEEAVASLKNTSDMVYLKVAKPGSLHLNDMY
# T3: DFNB31_2, Q9P202
# T3 sequence (Q9P202 274-371, limits assumed, looked up): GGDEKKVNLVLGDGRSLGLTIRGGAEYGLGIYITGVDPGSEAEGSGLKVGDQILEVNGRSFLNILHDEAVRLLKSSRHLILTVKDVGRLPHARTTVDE
# T4: LIN7C, Q9NUP9
# T4 sequence (Q9NUP9 88-185, limits assumed, looked up): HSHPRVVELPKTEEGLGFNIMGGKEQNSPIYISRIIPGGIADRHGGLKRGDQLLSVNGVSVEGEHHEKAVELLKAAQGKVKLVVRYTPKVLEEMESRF
# T5: LIN7B, Q9HAP6
# T5 sequence (Q9HAP6 88-185, limits assumed, looked up): T4 sequence (Q9NUP9 88-185, limits assumed, looked up) with S2A, E13D, I35V, I40V, H65Q, K79S, K89R, S96A
# T6: APBA1_1, Q02410
# T6 sequence (Q02410 651-752, limits assumed, looked up): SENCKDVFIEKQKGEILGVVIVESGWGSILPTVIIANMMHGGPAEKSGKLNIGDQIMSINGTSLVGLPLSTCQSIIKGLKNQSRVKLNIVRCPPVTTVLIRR
# T7: MPP7, Q5T2T1
# T7 sequence (Q5T2T1 134-230, limits assumed, looked up): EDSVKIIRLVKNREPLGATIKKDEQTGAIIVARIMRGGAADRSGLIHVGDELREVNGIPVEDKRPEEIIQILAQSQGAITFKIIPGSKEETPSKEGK
# T8: HTRA3, P83110
# T8 sequence (P83110 354-453, limits assumed, looked up): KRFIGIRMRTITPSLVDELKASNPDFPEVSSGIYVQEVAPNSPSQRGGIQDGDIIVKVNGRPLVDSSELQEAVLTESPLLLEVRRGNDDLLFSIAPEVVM
# T9: GRIP1_4, Q9Y3R0
# T9 sequence (Q9Y3R0 467-571, limits assumed, looked up): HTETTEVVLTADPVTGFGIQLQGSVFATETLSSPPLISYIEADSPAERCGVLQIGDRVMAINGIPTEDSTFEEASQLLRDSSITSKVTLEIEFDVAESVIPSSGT
# T10: GRIP1_3, Q9Y3R0
# T10 sequence (Q9Y3R0 247-346, limits assumed, looked up): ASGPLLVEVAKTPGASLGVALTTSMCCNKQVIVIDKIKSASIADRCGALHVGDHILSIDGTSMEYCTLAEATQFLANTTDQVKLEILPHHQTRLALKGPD
# T11: ARHGAP21, Q5T5U3
# T11 sequence (Q5T5U3 45-169, limits assumed, looked up): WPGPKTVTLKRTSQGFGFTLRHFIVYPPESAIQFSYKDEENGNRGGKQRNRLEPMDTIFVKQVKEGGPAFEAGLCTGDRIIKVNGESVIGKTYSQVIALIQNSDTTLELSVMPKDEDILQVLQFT
# Molecular target: MAGI2_4, Q86UL8
# Sequence (Q86UL8 772-865): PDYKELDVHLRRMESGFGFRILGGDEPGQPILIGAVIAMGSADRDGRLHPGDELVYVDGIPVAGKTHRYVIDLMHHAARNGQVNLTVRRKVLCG
# Test: holdup assay
# Design: key: below the threshold = too weak to quantify, mostly under pKd 3.1 to 4
# Settings: plain residues with an end cap or a label only (N-terminal biotin on a linker: ado-ado)
row,pKd,Binder
1,4.68,"AKPSRISTVV [IQSEC2, Q5JU85]"

# Molecular target: T1, PDZRN3_1, Q9UPQ7
# Test: holdup assay
# Design: key: below the threshold = too weak to quantify, mostly under pKd 3.1 to 4
# Settings: plain residues with an end cap or a label only (N-terminal biotin on a linker: ado-ado)
row,pKd,Binder
1,below the threshold,"AKPSRISTVV [IQSEC2, Q5JU85]"

# Molecular target: LNX1_1, Q8TBB1
# Sequence (Q8TBB1 261-371): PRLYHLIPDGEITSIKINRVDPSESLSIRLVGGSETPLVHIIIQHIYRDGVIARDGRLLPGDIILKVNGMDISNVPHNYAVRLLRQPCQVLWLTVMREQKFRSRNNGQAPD
# Test: holdup assay
# Design: key: below the threshold = too weak to quantify, mostly under pKd 3.1 to 4
# Settings: plain residues with an end cap or a label only (N-terminal biotin on a linker: ado-ado)
row,pKd,Binder
1,4.34,"AKPSRISTVV [IQSEC2, Q5JU85]"

# Molecular target: T2, DLG3_2, Q92796
# Test: holdup assay
# Design: key: below the threshold = too weak to quantify, mostly under pKd 3.1 to 4
# Settings: plain residues with an end cap or a label only (N-terminal biotin on a linker: ado-ado)
row,pKd,Binder
1,5.33,"AKPSRISTVV [IQSEC2, Q5JU85]"

# Molecular target: GRID2IP_1, A4D2P6
# Sequence (A4D2P6 1-87): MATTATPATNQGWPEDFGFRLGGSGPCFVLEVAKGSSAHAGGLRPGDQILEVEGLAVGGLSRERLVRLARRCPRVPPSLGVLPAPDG
# Test: holdup assay
# Design: key: below the threshold = too weak to quantify, mostly under pKd 3.1 to 4
# Settings: plain residues with an end cap or a label only (N-terminal biotin on a linker: ado-ado)
row,pKd,Binder
1,below the threshold,"AKPSRISTVV [IQSEC2, Q5JU85]"

# Molecular target: GRIP2_5, Q9C0E4
# Sequence (Q9C0E4 544-642): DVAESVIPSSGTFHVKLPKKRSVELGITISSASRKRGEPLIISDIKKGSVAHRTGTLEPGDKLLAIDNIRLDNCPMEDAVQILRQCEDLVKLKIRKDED
# Test: holdup assay
# Design: key: below the threshold = too weak to quantify, mostly under pKd 3.1 to 4
# Settings: plain residues with an end cap or a label only (N-terminal biotin on a linker: ado-ado)
row,pKd,Binder
1,below the threshold,"AKPSRISTVV [IQSEC2, Q5JU85]"

# Molecular target: GORASP2, Q9H8Y8
# Test: holdup assay
# Design: key: below the threshold = too weak to quantify, mostly under pKd 3.1 to 4
# Settings: plain residues with an end cap or a label only (N-terminal biotin on a linker: ado-ado)
row,pKd,Binder
1,4.47,"AKPSRISTVV [IQSEC2, Q5JU85]"

# Molecular target: Inadl_2, Q8NI35
# Sequence (Q8NI35 238-335): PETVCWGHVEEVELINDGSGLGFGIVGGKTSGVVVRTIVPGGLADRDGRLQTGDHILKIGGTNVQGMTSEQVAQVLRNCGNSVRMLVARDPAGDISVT
# Test: holdup assay
# Design: key: below the threshold = too weak to quantify, mostly under pKd 3.1 to 4
# Settings: plain residues with an end cap or a label only (N-terminal biotin on a linker: ado-ado)
row,pKd,Binder
1,below the threshold,"AKPSRISTVV [IQSEC2, Q5JU85]"

# Molecular target: DLG4_1, P78352
# Sequence (P78352 62-152): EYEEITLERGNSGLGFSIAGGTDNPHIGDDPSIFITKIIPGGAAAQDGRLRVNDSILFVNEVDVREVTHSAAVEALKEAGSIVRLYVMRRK
# Test: holdup assay
# Design: key: below the threshold = too weak to quantify, mostly under pKd 3.1 to 4
# Settings: plain residues with an end cap or a label only (N-terminal biotin on a linker: ado-ado)
row,pKd,Binder
1,4.82,"AKPSRISTVV [IQSEC2, Q5JU85]"

# Molecular target: GIPC2, Q8TF65
# Sequence (Q8TF65 112-203): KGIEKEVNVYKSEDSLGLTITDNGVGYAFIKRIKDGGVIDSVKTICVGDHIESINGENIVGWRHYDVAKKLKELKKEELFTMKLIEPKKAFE
# Test: holdup assay
# Design: key: below the threshold = too weak to quantify, mostly under pKd 3.1 to 4
# Settings: plain residues with an end cap or a label only (N-terminal biotin on a linker: ado-ado)
row,pKd,Binder
1,below the threshold,"AKPSRISTVV [IQSEC2, Q5JU85]"

# Molecular target: NHERF4_2, Q86UT5
# Sequence (Q86UT5 220-308): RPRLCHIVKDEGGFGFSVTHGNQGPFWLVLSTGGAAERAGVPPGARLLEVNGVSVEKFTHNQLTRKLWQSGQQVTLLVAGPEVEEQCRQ
# Test: holdup assay
# Design: key: below the threshold = too weak to quantify, mostly under pKd 3.1 to 4
# Settings: plain residues with an end cap or a label only (N-terminal biotin on a linker: ado-ado)
row,pKd,Binder
1,below the threshold,"AKPSRISTVV [IQSEC2, Q5JU85]"

# Molecular target: T3, DFNB31_2, Q9P202
# Test: holdup assay
# Design: key: below the threshold = too weak to quantify, mostly under pKd 3.1 to 4
# Settings: plain residues with an end cap or a label only (N-terminal biotin on a linker: ado-ado)
row,pKd,Binder
1,below the threshold,"AKPSRISTVV [IQSEC2, Q5JU85]"

# Molecular target: FRMPD3, Q5JV73
# Sequence (Q5JV73 12-100): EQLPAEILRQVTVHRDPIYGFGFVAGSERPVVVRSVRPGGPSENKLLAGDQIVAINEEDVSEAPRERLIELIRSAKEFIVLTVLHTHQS
# Test: holdup assay
# Design: key: below the threshold = too weak to quantify, mostly under pKd 3.1 to 4
# Settings: plain residues with an end cap or a label only (N-terminal biotin on a linker: ado-ado)
row,pKd,Binder
1,below the threshold,"AKPSRISTVV [IQSEC2, Q5JU85]"

# Molecular target: T4, LIN7C, Q9NUP9
# Test: holdup assay
# Design: key: below the threshold = too weak to quantify, mostly under pKd 3.1 to 4
# Settings: plain residues with an end cap or a label only (N-terminal biotin on a linker: ado-ado)
row,pKd,Binder
1,below the threshold,"AKPSRISTVV [IQSEC2, Q5JU85]"

# Molecular target: T5, LIN7B, Q9HAP6
# Test: holdup assay
# Design: key: below the threshold = too weak to quantify, mostly under pKd 3.1 to 4
# Settings: plain residues with an end cap or a label only (N-terminal biotin on a linker: ado-ado)
row,pKd,Binder
1,3.73,"AKPSRISTVV [IQSEC2, Q5JU85]"

# Molecular target: T6, APBA1_1, Q02410
# Test: holdup assay
# Design: key: below the threshold = too weak to quantify, mostly under pKd 3.1 to 4
# Settings: plain residues with an end cap or a label only (N-terminal biotin on a linker: ado-ado)
row,pKd,Binder
1,below the threshold,"AKPSRISTVV [IQSEC2, Q5JU85]"

# Molecular target: MAGI2_3, Q86UL8
# Sequence (Q86UL8 600-682): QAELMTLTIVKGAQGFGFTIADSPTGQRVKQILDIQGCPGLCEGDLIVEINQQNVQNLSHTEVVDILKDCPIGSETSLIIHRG
# Test: holdup assay
# Design: key: below the threshold = too weak to quantify, mostly under pKd 3.1 to 4
# Settings: plain residues with an end cap or a label only (N-terminal biotin on a linker: ado-ado)
row,pKd,Binder
1,3.55,"AKPSRISTVV [IQSEC2, Q5JU85]"

# Molecular target: T7, MPP7, Q5T2T1
# Test: holdup assay
# Design: key: below the threshold = too weak to quantify, mostly under pKd 3.1 to 4
# Settings: plain residues with an end cap or a label only (N-terminal biotin on a linker: ado-ado)
row,pKd,Binder
1,below the threshold,"AKPSRISTVV [IQSEC2, Q5JU85]"

# Molecular target: GORASP1, Q9BQQ3
# Sequence (Q9BQQ3 1-208): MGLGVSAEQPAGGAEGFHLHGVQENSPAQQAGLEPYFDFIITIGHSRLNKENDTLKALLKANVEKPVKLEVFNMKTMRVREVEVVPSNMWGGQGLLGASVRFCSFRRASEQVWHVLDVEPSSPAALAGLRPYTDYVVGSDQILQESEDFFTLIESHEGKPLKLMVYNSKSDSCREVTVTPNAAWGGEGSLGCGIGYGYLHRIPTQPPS
# Test: holdup assay
# Design: key: below the threshold = too weak to quantify, mostly under pKd 3.1 to 4
# Settings: plain residues with an end cap or a label only (N-terminal biotin on a linker: ado-ado)
row,pKd,Binder
1,4.11,"AKPSRISTVV [IQSEC2, Q5JU85]"

# Molecular target: T8, HTRA3, P83110
# Test: holdup assay
# Design: key: below the threshold = too weak to quantify, mostly under pKd 3.1 to 4
# Settings: plain residues with an end cap or a label only (N-terminal biotin on a linker: ado-ado)
row,pKd,Binder
1,3.65,"AKPSRISTVV [IQSEC2, Q5JU85]"

# Molecular target: T9, GRIP1_4, Q9Y3R0
# Test: holdup assay
# Design: key: below the threshold = too weak to quantify, mostly under pKd 3.1 to 4
# Settings: plain residues with an end cap or a label only (N-terminal biotin on a linker: ado-ado)
row,pKd,Binder
1,below the threshold,"AKPSRISTVV [IQSEC2, Q5JU85]"

# Molecular target: T10, GRIP1_3, Q9Y3R0
# Test: holdup assay
# Design: key: below the threshold = too weak to quantify, mostly under pKd 3.1 to 4
# Settings: plain residues with an end cap or a label only (N-terminal biotin on a linker: ado-ado)
row,pKd,Binder
1,below the threshold,"AKPSRISTVV [IQSEC2, Q5JU85]"

# Molecular target: FRMPD4, Q14CM0
# Sequence (Q14CM0 67-160): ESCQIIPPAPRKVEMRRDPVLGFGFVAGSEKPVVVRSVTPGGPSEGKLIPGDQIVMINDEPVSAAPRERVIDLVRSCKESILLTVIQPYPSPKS
# Test: holdup assay
# Design: key: below the threshold = too weak to quantify, mostly under pKd 3.1 to 4
# Settings: plain residues with an end cap or a label only (N-terminal biotin on a linker: ado-ado)
row,pKd,Binder
1,below the threshold,"AKPSRISTVV [IQSEC2, Q5JU85]"

# Molecular target: T11, ARHGAP21, Q5T5U3
# Test: holdup assay
# Design: key: below the threshold = too weak to quantify, mostly under pKd 3.1 to 4
# Settings: plain residues with an end cap or a label only (N-terminal biotin on a linker: ado-ado)
row,pKd,Binder
1,below the threshold,"AKPSRISTVV [IQSEC2, Q5JU85]"

# Molecular target: CASK, O14936
# Sequence (O14936 487-570): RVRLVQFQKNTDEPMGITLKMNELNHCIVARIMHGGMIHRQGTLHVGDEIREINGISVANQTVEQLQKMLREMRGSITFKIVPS
# Test: holdup assay
# Design: key: below the threshold = too weak to quantify, mostly under pKd 3.1 to 4
# Settings: plain residues with an end cap or a label only (N-terminal biotin on a linker: ado-ado)
row,pKd,Binder
1,below the threshold,"AKPSRISTVV [IQSEC2, Q5JU85]"
